# ± gives the standard error. Variants at the floor of the assay were thinned out.
# B1: glmS ribozyme (parent)
# chain: AUAAAAGCGCCAGAACUACAGAAAUGUAGUUGACGAGGAGGAGGUUUAUCGAAUUUUCGGCGGAUGCCUCCAAA
# Variants of: B1
# Assay: self-cleavage kobs at 10000 uM GlcN6P; higher = faster cleavage; RNA array
# Conditions: with glucosamine-6-phosphate
# In short: (§1)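 Glucosamine-6-phosphate, from 40 μM to 10 mM in HEPES/KCl/Mg(OAc)2 buffer, was flowed over sequenced MiSeq chips carrying barcoded ribozyme variants transcribed in situ by E. coli RNA polymerase. A hybridised Cy3 probe tracked the variants at 37 °C as tiles were imaged over ~14 h. kobs, kcat and KM were obtained by fitting normalised per-tile medians to exponential decays and then applying weighted Michaelis–Menten fits across concentrations.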
row,Variant,self-cleavage kobs at 10000 uM GlcN6P [s⁻¹]
1,A12G A36U A48C A53C G66A C70G,< 1e-05
2,C8G U45G U55C C71A,< 1e-05
3,A39G U46G,0.018 ± 0.0054
4,G9U G32U G37U,< 1e-05
5,C10U U49G C61U,< 1e-05
6,C16U A39G G40U,0.0008 ± 0.00026
7,A6G A14G A53C,7.6e-05 ± 2.3e-05
8,C8A G41U U46G G63A,< 1e-05
9,G29U C34A G59A U65C,< 1e-05
10,C11U A42C U55C C70U,< 1e-05
11,G7A G9A A53G G60A U65A C67A,0.000102 ± 2.7e-05
12,A39U U65A,0.00166 ± 0.00039
13,C11U A53G G60A,< 1e-05
14,A6U C10G G62U C67G C71G,2.87e-05 ± 1.4e-05
15,A15U C50U C58G,< 1e-05
16,C11A A33C A42C C50G,< 1e-05
17,A39C G51C G59C,< 1e-05
18,G35C A42C C70U,< 1e-05
19,A42U U56C C71U,5.21e-05 ± 2e-05
20,A14C G38U G63U C68A,4.08e-05 ± 1.9e-05
21,C34U G63C C68G,< 1e-05
22,G35U G40C A53U U54A,< 1e-05
23,A20U G32C,7.58e-05 ± 2.1e-05
24,G26U U57G,5.83e-05 ± 2e-05

row,Variant,self-cleavage kobs at 10000 uM GlcN6P [s⁻¹]
1,G37C U46A G60U,< 1e-05
2,A33C G38U G41U G43A U56A,< 1e-05
3,C8G G32U G43A C68G,< 1e-05
4,A36C G43U U56C U57A C67G,< 1e-05
5,A6U G7U G13U U31C,< 1e-05
6,C8G A14G A33U,< 1e-05
7,G40A U69C,5.59e-05 ± 1.9e-05
8,C10A C58G G60A U69G,5.7e-05 ± 1.6e-05
9,G13C A33G G41U,< 1e-05
10,C34U C58U,< 1e-05
11,G9C C34A U55C,< 1e-05
12,A12C G13U C61U G62U,< 1e-05
13,C11G U30A U57G,< 1e-05
14,A12C A15U A52G,0.000174 ± 3.6e-05
15,C10U C16G C61A C71U,< 1e-05
16,A33G G37U U45C G62U,< 1e-05
17,G7A A14G A39G C71U,5.55e-05 ± 1.7e-05
18,A12U U31C C67G,0.000267 ± 5.5e-05
19,A39U G41C U49A C61U,< 1e-05
20,G43C C58G C71A,< 1e-05
21,G13C G38U A48U C50A,< 1e-05
22,G44A U56A G60C C68A,< 1e-05
23,A12G G51C G60U,< 1e-05
24,C10G C71A,< 1e-05

row,Variant,self-cleavage kobs at 10000 uM GlcN6P [s⁻¹]
1,C10A G13U G44A,< 1e-05
2,G13U C50G C70U,5.49e-05 ± 1.2e-05
3,A36C U69A C70U,6.82e-05 ± 1.5e-05
4,C34U G37U U46C U47A G62A,< 1e-05
5,U46G G51U C67A,< 1e-05
6,G29C A52U A53C C68G,< 1e-05
7,A39C G44C G60U,< 1e-05
8,U30G U45A C67A,0.00242 ± 0.00045
9,C8A A39G G41U G66U C67G,< 1e-05
10,A6G C34A A39G,< 1e-05
11,A12C G41A U46G,0.000334 ± 7.8e-05
12,G32U C34A G37U,< 1e-05
13,C11U A39G C58G,7.12e-05 ± 1.7e-05
14,A36U G37C C50U U57A U69G,4.81e-05 ± 2.3e-05
15,C16U A53G U69G,6.58e-05 ± 1.9e-05
16,A33C A36C C50U C68A,< 1e-05
17,A6C U49A,< 1e-05
18,G38U A64U C71U,< 1e-05
19,G40U G43C U65A,< 1e-05
20,U30G G32A C71U,0.00359 ± 0.0005
21,G9U G32C C34G U54G A64U C71A,< 1e-05
22,A15G U31A A36G C58U,< 1e-05

# Variants of: B1
# Assay: self-cleavage kobs at 2500 uM GlcN6P; higher = faster cleavage; RNA array
# Conditions: with glucosamine-6-phosphate
# In short: as §1
row,Variant,self-cleavage kobs at 2500 uM GlcN6P [s⁻¹]
1,U46G G59C C68U C70A,< 1e-05
2,G43A U54A,3.85e-05 ± 1.7e-05
3,G43U A48U G62A C67A,< 1e-05
4,G43A U55C G59U C67G,< 1e-05
5,C50G U56G G59U,8.66e-05 ± 3.9e-05
6,G43U G44A C50U C61G,< 1e-05
7,A48G U49G A52U A53G,< 1e-05
8,U46G G51U C67A,< 1e-05
9,G44C A53U U54G,7.38e-05 ± 2e-05
10,A48U U56A,9.99e-05 ± 3.4e-05
11,A52G C68U C70U,0.000745 ± 0.00024
12,A52C A53G U57G C70G,5.76e-05 ± 2.3e-05
13,U45G U57G C68A C70A,< 1e-05
14,U45A U47A G59U C61A,< 1e-05

# — the supplement of paper PMC7125110
